Test results reported in publication PMC5440646, “T Cell Costimulation by CD6 Is Dependent on Bivalent Binding of a GADS/SLP-76 Complex” (Molecular and Cellular Biology, 2017).
Where no end group is shown, it is not given here. [ ]: non-standard residue; d: D form. The star is where a group is joined. Biotin = O=C1N[C@H]2[C@H](CS[C@H]2CCCCC(=O)*)N1; pY = N[C@@H](Cc1ccc(OP(=O)(O)O)cc1)C(=O)O

T1: GADS SH2 domain, His-tagged (UniProt O75791 58-149)
T1 construct: GRB2-related adaptor downstream of Shc (GADS), SH2 domain; In the popinF vector, provided by the Oxford Protein Production Facility
T1 sequence (looked up): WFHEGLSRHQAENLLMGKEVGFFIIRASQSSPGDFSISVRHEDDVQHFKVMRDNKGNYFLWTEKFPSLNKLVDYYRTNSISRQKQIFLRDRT


Tests used:
Assay in all cases: SPR; biotinylated short peptides immobilised at ~25 response units on streptavidin-coated CM5 chips, BIAcore 3000; SH2 domains injected at 10 μl/min at 37°C; equilibrium binding, 1:1 Langmuir
Conditions in all cases: both partners purified
[1] = target: T1, GADS SH2 domain, His-tagged
[2] = target: T2, GRB2 SH2 domain, His-tagged (UniProt P62993 60-152)
T2 construct: In the popinF vector

[3] = target: T3, TSAd SH2 domain, His-tagged (UniProt Q9NP31 95-186)
T3 construct: T cell-specific adaptor protein (TSAd, SH2D2A), SH2 domain; In the popinF vector
T3 sequence (Q9NP31 95-186): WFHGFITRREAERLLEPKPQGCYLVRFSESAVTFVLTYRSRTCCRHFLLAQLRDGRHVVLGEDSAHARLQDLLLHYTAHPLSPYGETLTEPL

T2 sequence (P62993 60-152): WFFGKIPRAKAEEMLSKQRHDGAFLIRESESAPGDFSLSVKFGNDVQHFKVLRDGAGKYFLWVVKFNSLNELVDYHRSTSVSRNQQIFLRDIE

Row | Kd [1] | Kd [2] | Kd [3] | Binder
1 | 2000 to 3000 nM | 3000 nM | 74000 nM | Biotin-LLHSD[pY]MNMTP (CD28-derived peptide containing the YXN motif; also called phosphorylated CD28-derived peptide; source: synthetic peptide (Peptide Protein Research Ltd.)) [CD28 pYMNM peptide (biotin-LLHSDpYMNMTP)]
2 | 1000 to 3000 nM | 2000 to 4000 nM | 26000 to 58000 nM | Biotin-SSGEW[pY]QNFQP (CD6, human, cytoplasmic region around Y629; also called phosphorylated CD6 Y629 peptide; source: synthetic peptide (Peptide Protein Research Ltd.)) [CD6 pY629 peptide (biotin-SSGEWpYQNFQP)]
